Assay [1] concerns the target T1, PD-1 (soluble, biotinylated, on sensors or coated on plates) (human, UniProt Q15116 25-167, limits assumed, biotinylated (avi tag, Avidity's biotinylation kit) in the Octet assays).
T1 construct: also called biotinylated PD-1; soluble PD1
In words: method not stated at the list; Octet curves of the mutants in FIG. 23. On the technique in general: Biolayer interferometry detects binding as a change in optical thickness at a sensor tip.

The next assay addresses human PD-1 on cells (human, UniProt Q15116 25-288). In words: cell-based or functional assay.
The target in assay [2] is T1, PD-1 (soluble, biotinylated, on sensors …). Briefly: Octet (BLI).
Assay [3] deals with T2, mouse PD-1 on transiently transfected Expi293 cells (mouse, UniProt Q02242 25-288).
T2 construct: whole, on cells; also called mPD-1
T2 sequence (looked up): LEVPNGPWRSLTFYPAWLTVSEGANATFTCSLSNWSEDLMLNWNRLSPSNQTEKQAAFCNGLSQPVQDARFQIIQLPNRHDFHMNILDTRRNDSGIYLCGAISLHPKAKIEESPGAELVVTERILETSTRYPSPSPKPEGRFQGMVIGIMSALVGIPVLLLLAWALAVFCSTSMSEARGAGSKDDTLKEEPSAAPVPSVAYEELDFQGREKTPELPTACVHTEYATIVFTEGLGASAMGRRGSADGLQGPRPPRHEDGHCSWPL
Briefly: flow cytometry on transiently transfected Expi293 cells, anti human Fc-APC. As for the experimental part:
3E5 transiently transfected Expi293 cells were suspended in 100 ul MACS buffer and added to each well. 50 ul of each antibody dilution were then mixed with the cells and the plate was incubated at 4° C. for 30 min. Following incubation, the plate was washed 2× with MACS buffer and then incubated with lul/well anti human Fc-APC (Biolegend #409306). The plate was incubated for 25 min at 4° C. and then washed 3× before running the samples.
For orientation: Flow cytometry measures light scatter and fluorescence of single cells or particles in a stream.

One may read the koff as the first-order rate constant of dissociation. Higher therefore signals fast dissociation. One may read the kon as the rate constant with which the complex forms. A low value points to slower complex formation.

T1 sequence (Q15116 25-167 limits assumed): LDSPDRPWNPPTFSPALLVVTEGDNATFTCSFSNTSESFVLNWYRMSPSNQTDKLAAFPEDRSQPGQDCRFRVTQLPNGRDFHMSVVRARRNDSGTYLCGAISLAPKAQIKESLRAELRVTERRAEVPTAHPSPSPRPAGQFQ
Sequence of human PD-1 on cells (Q15116 25-288): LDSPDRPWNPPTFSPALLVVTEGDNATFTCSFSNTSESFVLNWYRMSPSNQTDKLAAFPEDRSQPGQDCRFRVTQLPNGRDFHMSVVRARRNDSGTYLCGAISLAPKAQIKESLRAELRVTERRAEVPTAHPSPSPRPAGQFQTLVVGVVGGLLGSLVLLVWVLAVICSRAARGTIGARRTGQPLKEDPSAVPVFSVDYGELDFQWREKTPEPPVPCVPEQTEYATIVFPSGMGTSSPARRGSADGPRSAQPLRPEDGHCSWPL

B1: P4-B3 minibody (scFv-Fc) (Fc fusion)
scFv: QVQLVQSGGGLVQPGRSLRLSCAASGFTFDDYAMHWVRQAPGKGLEWVSGISWNSGSIGYADSVKGRFTVSRDNAKNSLYLQMNSLRAEDTAVYYCASDYGDKYYYYGMDVWGKGTTVTVSSGGGGSGGGGSGGGGSQPGLTQPPSASGTPGQRVTISCSGSSSNIGSNTVNWYQQFPGKAPKLLIFNDNQRPSGVPDRFSASKSGTSASLAISGLQSEDEADYYCAAWDGGLNGRGVFGGGTKLTVL
notes: scFv-Fc (minibody) format; also called P4-B3 WT; P4-B3 wild type; not shown: Fc (hinge-CH2-CH3) of the minibody vector and its junction to the scFv
As for B1, the Kd in assay [1] was ~1 nM. In addition, the “EC50, Promega PD1-PDL1 bioassay (scFv-Fc format)” value in the assay with human PD-1 on cells is 1.75 fold of the EC50 of Nivo.

B2: P4-B3 scFv (scFv)
scFv: B1 scFv
notes: This is a single chain Fv; VH and VL are joined by a G4S linker of which only the DNA is printed
Turning to B2, in assay [2], the koff was determined as 6.45e-05 s⁻¹ and the kon amounted to 68500 M⁻¹ s⁻¹.

B3: P4-B3 IgG1 wild type monomer (antibody, V domains shown)
VH: QVQLVQSGGGLVQPGRSLRLSCAASGFTFDDYAMHWVRQAPGKGLEWVSGISWNSGSIGYADSVKGRFTVSRDNAKNSLYLQMNSLRAEDTAVYYCASDYGDKYYYYGMDVWGKGTTVTVSS
VL: QPGLTQPPSASGTPGQRVTISCSGSSSNIGSNTVNWYQQFPGKAPKLLIFNDNQRPSGVPDRFSASKSGTSASLAISGLQSEDEADYYCAAWDGGLNGRGVFGGGTKLTVLG
As for B3, in the assay with human PD-1 on cells, the “fold induction (RLU stimulated/RLU unstimulated), Promega PD1-PDL1 bioassay” value was ~0.5 fold of the signal of pembro and nivo.

B4: P4-B3 (format not stated) (antibody, V domains shown)
VH: B3 VH
VL: QPGLTQPPSASGTPGQRVTISCSGSSSNIGSNTVNWYQQFPGKAPKLLIFNDNQRPSGVPDRFSASKSGTSASLAISGLQSEDEADYYCAAWDGGLNGRGVFGGGTKLTVL
notes: It was detected with anti human Fc-APC
B4: in assay [3], the binding result was “binds”.

Values taken from patent publication US20220249640A1 (Dana-Farber, published 2022).
